Source: patent US20220119792

Columns and labels:
[1] = target: AH6-DEVD-hGH expressed from pAPT-Y-AH6-DEVD-hGH-Lacuv5-rev-CASP3
[2] = target: DH6-DEVD-hGH expressed from pAPT-Y-DH6-DEVD-hGH-Lacuv5-rev-CASP3
[3] = target: H6-DEVD-hGH expressed from pAPT-Y-H6-DEVD-hGH-Lacuv5-rev-CASP3
[4] = target: H6-DEVD-hGH expressed from pETDuet-H6-DEVD-hGH-T7-rev-CASP3
[5] = target: HAK-DEVD-hGH expressed from pAPT-Y-HAK-DEVD-hGH-Lacuv5-rev-CASP3
[6] = target: KH6-DEVD-hGH expressed from pAPT-Y-KH6-DEVD-hGH-Lacuv5-rev-CASP3
[7] = target: NH6-DEVD-hGH expressed from pAPT-Y-NH6-DEVD-hGH-Lacuv5-rev-CASP3
Chain of NH6-DEVD-hGH expressed from pAPT-Y-NH6-DEVD-hGH-Lacuv5-rev-CASP3 (chain, as listed by the source): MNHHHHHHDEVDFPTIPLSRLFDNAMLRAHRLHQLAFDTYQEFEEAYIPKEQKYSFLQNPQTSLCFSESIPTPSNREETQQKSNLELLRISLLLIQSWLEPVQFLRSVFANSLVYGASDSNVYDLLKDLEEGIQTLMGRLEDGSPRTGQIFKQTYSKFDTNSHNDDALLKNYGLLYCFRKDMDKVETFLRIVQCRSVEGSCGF

Chain of AH6-DEVD-hGH expressed from pAPT-Y-AH6-DEVD-hGH-Lacuv5-rev-CASP3 (chain, as listed by the source): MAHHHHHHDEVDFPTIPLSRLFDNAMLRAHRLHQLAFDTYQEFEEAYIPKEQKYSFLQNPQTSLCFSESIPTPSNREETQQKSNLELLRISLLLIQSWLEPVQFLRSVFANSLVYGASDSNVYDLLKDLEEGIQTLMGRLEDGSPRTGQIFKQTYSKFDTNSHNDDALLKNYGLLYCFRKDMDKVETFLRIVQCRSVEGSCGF
Chain of H6-DEVD-hGH expressed from pAPT-Y-H6-DEVD-hGH-Lacuv5-rev-CASP3 (chain, as listed by the source): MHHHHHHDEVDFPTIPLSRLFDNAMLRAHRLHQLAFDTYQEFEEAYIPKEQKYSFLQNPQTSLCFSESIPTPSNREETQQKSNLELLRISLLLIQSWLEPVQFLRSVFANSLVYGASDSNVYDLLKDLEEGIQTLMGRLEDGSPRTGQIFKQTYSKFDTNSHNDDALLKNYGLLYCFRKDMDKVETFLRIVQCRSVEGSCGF
Chain of DH6-DEVD-hGH expressed from pAPT-Y-DH6-DEVD-hGH-Lacuv5-rev-CASP3 (chain, as listed by the source): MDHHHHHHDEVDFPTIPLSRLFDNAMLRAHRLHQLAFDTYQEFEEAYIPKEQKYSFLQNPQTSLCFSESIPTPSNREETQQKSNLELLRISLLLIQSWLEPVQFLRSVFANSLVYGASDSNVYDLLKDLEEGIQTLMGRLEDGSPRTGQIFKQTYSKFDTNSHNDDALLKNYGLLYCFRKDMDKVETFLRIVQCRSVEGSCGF
Chain of HAK-DEVD-hGH expressed from pAPT-Y-HAK-DEVD-hGH-Lacuv5-rev-CASP3 (chain, as listed by the source): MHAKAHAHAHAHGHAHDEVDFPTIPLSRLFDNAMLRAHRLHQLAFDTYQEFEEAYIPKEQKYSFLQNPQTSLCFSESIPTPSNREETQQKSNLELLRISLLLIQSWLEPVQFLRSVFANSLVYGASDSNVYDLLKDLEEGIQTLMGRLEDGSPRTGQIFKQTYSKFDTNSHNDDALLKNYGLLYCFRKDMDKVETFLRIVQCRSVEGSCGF
Chain of H6-DEVD-hGH expressed from pETDuet-H6-DEVD-hGH-T7-rev-CASP3 (chain, as listed by the source): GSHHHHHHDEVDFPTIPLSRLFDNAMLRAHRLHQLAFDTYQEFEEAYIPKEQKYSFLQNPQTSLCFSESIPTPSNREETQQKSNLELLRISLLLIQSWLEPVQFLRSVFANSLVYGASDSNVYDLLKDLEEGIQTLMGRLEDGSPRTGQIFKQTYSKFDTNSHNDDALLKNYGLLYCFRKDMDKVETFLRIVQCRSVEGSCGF
Chain of KH6-DEVD-hGH expressed from pAPT-Y-KH6-DEVD-hGH-Lacuv5-rev-CASP3 (chain, as listed by the source): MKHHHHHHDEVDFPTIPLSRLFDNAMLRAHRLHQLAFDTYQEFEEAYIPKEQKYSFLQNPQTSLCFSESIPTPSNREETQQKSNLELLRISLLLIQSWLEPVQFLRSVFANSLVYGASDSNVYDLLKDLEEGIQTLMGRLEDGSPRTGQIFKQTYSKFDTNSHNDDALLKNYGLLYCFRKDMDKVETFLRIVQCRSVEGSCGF

B1: reverse caspase-3 (protein)
chain: MIETDSGVDDDMACHKIPVEADFLYAYSTAPGYYSWRNSKDGSWFIQSLCAMLKQYADKLEFMHILTRVNRKVATEFESFSFDATFHAKKQIPCIVSMLTKELYFYHDEVDGENTENSVDSKSIKNLEPKIIHGSESMDSGISLDNSYKMDYPEMGLCIIINNKNFHKSTGMTSRSGTDVDAANLRETFRNLKYEVRNKNDLTREEIVELMRDVSKEDHSKRSSFVCVLLSHGEEGIIFGTNGPVDLKKITNFFRGDRCRSLTGKPKLFIIQACRGTELDCGIETD
With B1 the “cleavage of synthetic tag (Western blot, co-expression in E. coli)” value (“cleavage of synthetic tag” below) [1] was 99.30% or more of the synthetic tag was cleaved, the “cleavage of synthetic tag” value [2] was 99.30% or more of the synthetic tag was cleaved and the “cleavage of synthetic tag” value [3] was 99.30% or more of the synthetic tag was cleaved. For the same protein, the “cleavage of N-terminal methionine and synthetic tag (Western blot, co-expression in E. coli)” value [4] was 96.12% of the N-terminal methionine of the growth hormone protein and the synthetic tag was cleaved, the “cleavage of synthetic tag” value [5] was 99.30% or more of the synthetic tag was cleaved and the “cleavage of synthetic tag” value [6] was 99.30% or more of the synthetic tag was cleaved. For the same protein, the “cleavage of synthetic tag” value [7] was 99.30% or more of the synthetic tag was cleaved.
